Measured values published in the DeepSol protein solubility set.

assay: soluble on expression in E. coli; label from the status in PepcDB or PDB records

Sequence	soluble on expression in E. coli
MLKHIISAYNFSRDELEDIFALTDKYSKNLNDTRKILSGKTISIAFFEPSTRTYLSFQKAIINLGGDVIGFSGEESTSVAKGENLADTIRMLNNYSDGIVMRHKYDGASRFASEISDIPVINAGDGKHEHPTQAVIDIYTINKHFNTIDGLVFALLGDLKYARTVNSLLRILTRFRPKLVYLISPQLLRARKEILDELNYPVKEVENPFEVINEVDVLYVTRIQKERFVDEMEYEKIKGSYIVSLDLANKMKKDSIILHPLPRVNEIDRKVDKTTKAKYFEQASYGVPVRMSILTKIYGE	soluble
MGHHHHHHSHMPKVKRSRKAPQDGWELIEPTLDQLDQKMREAETEPHEGKRKVESLWPIFRIHHQKTRYIFDLFYKRKAYSRELLDICYKEGLADKNLLAKWKKQGIGNLCCLRCIQTRDTNFGTNCICRVPKSKLEVGRIIECTHCGCRGCSG	not soluble
MGSSHHHHHHGGTGENLYFQGGSGSNRKKVAYFHDPDIGSYYYGAGHPMKPQRIRMTHSLIVSYNLYKYMEVYRPHKSDVNELTLFHDYEYIDFLSSISLENYREFTYQLKRFNVGEATDCPVFDGLFQFQQSCAGASIDGASKLNHHCADICVNWSGGLHHAKMSEASGFCYINDIVLGILELLKYHARVMYIDIDVHHGDGVEEAFYVTHRVMTVSFHKFGDYFPGTGDITDVGVNHGKYYSVNVPLNDGMTDDAFVDLFKVVIDKCVQTYRPGAIIIQCGADSLTGDRLGRFNLTIKGHARCVEHVRSYNIPLLVLGGGGYTIRNVSRCWAYETGVVLNKHHEMPDQISLNDYYDYYAPDFQLHLQPSNIPNYNSPEHLSRIKMKIAENLRHIEHAPGVQFSYVPPDFFNSDIDDESDKNQYELKDDSGGGRAPGTRAKEHSTTHHLRRKNYDDDFFDLSDRDQSIVPY	not soluble
MSLELPILPTSVIGSYPKPRWLLRMYKLRELGKIPEEDFKEAVRDASISVLREHERAGIDIPWDGEMGRSEMTEYFTSKIKGFKFYGPVRVWGNAYFNKAAAVDKLEYEEPLVLDEFLWVKENTTREIVKIPITGPYTIAEWSFNEYYPDKESFVMDLAEIINKELKVLEKHGAKFVQLDEPAMLNHPSEVPLAVDAINRAVKGIKMKVGLHVCYSNYNLLADYFDEIKVTQFALEFANRNFRDMDFLKKLSNKELGFGVVDVHNPRVESVEEIRQAIKKVFTYLEPEWVYINPDCGLKLLDRKIAYQKLVNMVQAVRGVRKELEKEGKTTIEFRTLKDIEGHHHHHH	soluble
MRGSHHHHHHGSESETLTAKATITTTTLPSHDETKTESTEFEKNQKRYQDLISTFPHEKGWRPKEPLIEYGGYWWLPSLLEGCIHAQEFFQARPSDFLVCSYPKTGTTWLKALTFAIANRSRFDDSSNPLLKRNPHEFVPYIEIDFPFFPEVDVLKDKGNTLFSTHIPYELLPDSVVKSGCKMVYIWREPKDTFISMWTFLHKERTELGPVSNLEESFDMFCRGLSGYGPYLNHILAYWKAYQENPDRILFLKYETMRADPLPYVKSLAEFMGHGFTAEEEEKGVVEKVVNLCSFETLKNLEANKGEKDREDRPGVYANSAYFRKGKVGDWSNYLTPEMAARIDGLMEEKFKGTGLLEHGKKLN	soluble
MGHHHHHHSHMIEVLTTTDSQKLLHQLNALLEQESRCQPKVCGLRLIESAHDNGLRMTARLRDFEVKDLLSLTQFFGFDTETFSLAVNLLDRFLSKMKVQPKHLGCVGLSCFYLAVKSIEEERNVPLATDLIRISQYRFTVSDLMRMEKIVLEKVCWKVKATTAFQFLQLYYSLLQENLPLERRNSINFERLEAQLKACHCRIIFSKAKPSVLALSIIALEIQAQKCVELTEGIECLQKHSKINGRDLTFWQELVSKCLTEYSSNKCSKPNVQKLKWIVSGRTARQLKHSYYRITHLPTIPEMVP	not soluble
SDAALLLNVEGVKKTILHGGTGELPNFITGSRVIFHFRTMKCDEERTVIDDSRQVGQPMHIIIGNMFKLEVWEILLTSMRVHEVAEFWCDTIHTGVYPILSRSLRQMAQGKDPTEWHVHTCGLANMFAYHTLGYEDLDELQKEPQPLVFVIELLQVDAPSDYQRETWNLSNHEKMKAVPVLHGEGNRLFKLGRYEEASSKYQEAIICLRNLQTKEKPWEVQWLKLEKMINTLILNYCQCLLKKEEYYEVLEHTSDILRHHPGIVKAYYVRARAHAEVWNEAEAKADLQKVLELEPSMQKAVRRELRLLENRMAEKQEEERLRCRNMLSQGATQPPAEPPTEPPAQSSTEPPAEPPTAPSAELSAGPPAEPATEPPPSPGHSLQH	soluble
MDSKILTMFNQGKHEEAIQAAVKAIDAAPDDPKRYAMLATMLISIKALDQAGELLAKARQLFPEDLELQYTAGLFAYAQADFAAAVSWFAKVRTDQTLKNDATYMLALSYQQAGQPTKALAFALTAHDLAPKQLDTALLAADLLMANDVFDAAARVLKPLLATEQPQVLFTYGMALSAAGKDGSHYLNKAKALDPKGYDQKANIVADINRFLRLQEGQDGHALEHHHHHH	soluble
LSSPQNILVCVTQQITCERLILKAAELRNELKGELFVIHVAKNEWNFLDNIKEGEALEYLFKISKSVGANLSVLKSDDIVQTIVNFAKENKITHIVMGESPNDHKENNFYNELKRLLSNVEILVIPQAGI	not soluble
MKKFFRFQLCCICLLVLIVSACKVKRPDSVISESEMENLLYDYHIAKAMGENMPGGENYKKALYVEAVFKKYGTTEEVFDSSMVWYTRNTKILSEIYEKVNKRLKAQQNAINHLIALRDNKPKMSAPGDSINVWAWQRIAQLTEAPLNNKFTFTLPSDTNFKKRDVLLWKMQYNFLSEIPDSTMAPIMAMQIVYENDTVTHSCVKHIFKSGIQNIRLQSDTMNIKEIKGFIFCPLSEESITLLVSDISLTRYHANDSITQISKDSLKTDSIKEKSKNDSIQKKTPKDTIQASSSHQRTNPNDLNRPNNDVRPIKPEQREKEMQIEKEKQQLERQQRTNPRRPLRRQNN	not soluble
MIAEFESRILALIDGMVDHASDDELFASGYLRGHLTLAIAELESGDDHSAQAVHTTVSQSLEKAIGAGELSPRDQALVTDMWENLFQQASQL	not soluble
MGAGESSMALEKHLFDLKFAAKQLEKNAQRCEKDEKVEKDKLTAAIKKGNKEVAQVHAENAIRKKNEAVNYIKMAARIDAVAARVQTAATQKRVTASMSGVVKAMESAMKSMNLEKVQQLMDRFERDFEDLDVTTKTMEKTMDGTTVLNAPKSQVDALIAEAADKAGIELNQELPSNVPTALPTGTQAVSEDKDLTERLAALRNM	not soluble
MSLEKYNAEVERDPFANRVFEQEEKRELTSEQRIAYENIKEKINNSEQRTFLLHGVTGSGKTEVYLQTIEEVLNKGKEAMMLVPEIALTPQMVLRFKRRFGDDVAVLHSGLSNGERYDEWQKIRDGRARVSVGARSSIFAPFKNLGIIIIDEEHESTYKQEDYPRYHARDIAEWRSQFHQCPLVLGSATPSLESYARTEKGVYQLLTLPTRVNQQALPSIDIVDMREELSAGNRSMFSNELREAIEDRLRKNEQIVLFLNRRGYASFMLCRDCGYVPQCPHCDISLTYHKSTDQLKCHYCGYHEVPPNKCPNCESSHIRQVGTGTQRVEEILQQEFEEARIIRMDVDTTSRKGAHEKLLNEFEEGKGDILLGTQMIAKGLDYPNITLVGVLNADTMLNLPDFRASERTYQLLTQVAGRAGRHDKPGRVIIQTYNPEHYAIQDVQKNDYLTFYQKEMEYRKIGKYPPYYFLINFTISHKNMKKVMEASKHIHQILLQHLTDRALVLGPSPAAIARINNEHRFQILVKYKSEPELLKALQYLDDYYHEAYLKNKLALKIDINPQILMEGHHHHHH	soluble
MQKKSQTAQSYHPMIKEFPEFYGPLTCPGQFLALLILEFGLNFAEIQKLKWENFNWNFKYLTIEKAGIKRVLPIREKFAIRVKAINNADELFAKSRQFLYTELKKFTNYSSKEIREQYILHQVKAGKSIYELATLLGLTTITTLEKYYRLEHHHHHH	not soluble
EIDGTTYVDGGLFKDLPASVIREDCRYLIGVHLNPKEPSDYKKSLFGIAERCFGYIFRANSLPDRKLCDLLIESREIIKFKPFHVEPAEEIAAFGYKMAKQVLKTTSITRNP	not soluble
MFKILRKERLAPGINLFEIESPRIAKHAKPGQFVMIRLHEKGERIPLTIADVDISKGSITIVAQEVGKTTRELGTYEAGDYILDVLGPLGKPSHIDYFGTVVMIGGGVGVAEIYPVAKAMKEKGNYVISILGFRTKDLVFWEDKLRSVSDEVIVTTNDGSYGMKGFTTHALQKLIEEGRKIDLVHAVGPAIMMKAVAELTKPYGIKTVASLNPIMVDGTGMCGACRVTVGGEVKFACVDGPEFDAHLVDWDQLMNRLAYYRDLEKISLEKWERERRMV	not soluble
MSGSHHHHHHSSGIEGRGRLQTRQDVLYLYNWTYYTPTSLIKKFEQQYNVQVVYDDYASNEDMFAKLSIGASGYDLVVPSGDFVSIMKRKHLLEKIDLSKIPNVQFIKESVRARIAYDPKMEYSVPYYLGAAGIAVNKKAVPSYARTWSIFSRKDLAYRMSMMDDMREVMGAALASLGYNVNTKNEQELAQAAILVTDHWKPNLVKFDSDGYAKSFASGDFVVAHGFAEAFFAETPEAMHEHIDFFIPQDVASPVYVDSFCIPKGARNRDLAHAFINFFLEPAHYAEFLDTFGFPSTIHREAAAYQKKTPYYSEHDLERGTLKTDVGAAIEHYNAHWNAVRFR	soluble
MGSDKIHHHHHHMKILHLGKFYPLKGGMEKAILDIVRGISMQGVTCDLLCVSTEKAGVFPLNEHAHIYAMPSVCNVNSVRISPLLIPTLRKLCPNYDIIHIHCPNPMANLALYLSGYRGKVVLHWHSDILKQKYALKLYKPLQTWLIRRADVIIGTSPVYLENSPFLRGMEHKFRIVPLGCEAIVPSADRVSDIRKQYKGKRIIFALGRLIAYKGFRFLIEAARYLDDGYVVLIGGTGPLYNKLLKQINEENLQGKVCLLGYVTDDEVAQYYGACDVFCLSSVWKTEAFGLVQIEAMSCGKPVVATNIEGSGVPWVNRNGYSGLNVEPENPEALAKAIMKITSSEEAYRTYSRQARAHYNKMFVKERMLAGYEQVYASLYHEK	not soluble
MGSDKIHHHHHHKPGREFYASDIRESMEKGDKLAILMVHFGSAYPEARTQVLDVMNKRVKEAFPDVEVRQAYSARSVVSRLRAQGVWVQLPADALVELRDQGFTHVIIQPTIIIEGVEMEAIRKEAEQRKGLFKDLRVGNPLLYDDADYEAVMKAVSSPSGVTKNGAKLLVAHGTYHASNSAYAKLGYMFQTKGMKDYYTGTREGFPTIENVGEQMRQAGHKRVQLIPFMFVLIRGTENTVTDFWQKGLRQQGFDVDIYLKPLGENPAIRSLFIDHIRFAMKYKRATIFDRKKLYTH	not soluble
MSLRVENLRSSTYRNGPTGLPNRARFSEDLDAVLLQRTADSAATAIAVDLCGSDYFRDMVKALGWDYADGYVALAYKRLISKLPAGTALYRLDTTTFAFMVTTADPLRLSALCSKISKGFVAPLEHQGIPHTAVASIGAVLLETSYGAADTLRSLTTSVDVAREHCLTWSLYERKHDVVQRNTFRLLAALPAALASSNQLRLHYQPRVDLHDHRCVAVEALLRWQHPMIGPVMPSDFIPMAEKTALINRITAWVIDQGIAQAARWQQQGLDFNLALNVSAADLDQPGFVGLLRRGLDRHKLDPRRLEIEFTESAMIRHPEHLSEQLAAVAALGVHIAIDDFGTGYSNFSYLKQLPASSLKIDQSFVRSLPDSRTDRTLVPAMIQLGHSLGQRVVAEGIESAQAYAQLRSWGCDEGQGYWIAKPMPAAALEAWLETPWYQRATDAEGHHHHHH	soluble
MAIELYSQREIEKIRKASQIVAEVLHIVAENVKPGVSTWDLEMIARKETEKRGAKPAFLGYKPPFSDVRYPAALCISINDEVVHGLPKKEKVIKEGDVVSIDFGAIYDGYAGDSAITVIAGKGSPEAQKLLEATKEALYNAIEKALPGKKVGDITKAIHETAEKYGFKTILRYGGHGVGRKVHQEPFVPNNVKDIGKKNPRLRQGMVIAIEPMLSIGTEETVEDGDGWTVKTKDGSLAAHFEHTVAITKKGPVILTEL	soluble
